Target: extracellular domain of PDGFRα-Fc conjugated (human) (UniProt P16234)
Assay: SPR + BLI

Chain of UniProt P16234 (P16234 24-528): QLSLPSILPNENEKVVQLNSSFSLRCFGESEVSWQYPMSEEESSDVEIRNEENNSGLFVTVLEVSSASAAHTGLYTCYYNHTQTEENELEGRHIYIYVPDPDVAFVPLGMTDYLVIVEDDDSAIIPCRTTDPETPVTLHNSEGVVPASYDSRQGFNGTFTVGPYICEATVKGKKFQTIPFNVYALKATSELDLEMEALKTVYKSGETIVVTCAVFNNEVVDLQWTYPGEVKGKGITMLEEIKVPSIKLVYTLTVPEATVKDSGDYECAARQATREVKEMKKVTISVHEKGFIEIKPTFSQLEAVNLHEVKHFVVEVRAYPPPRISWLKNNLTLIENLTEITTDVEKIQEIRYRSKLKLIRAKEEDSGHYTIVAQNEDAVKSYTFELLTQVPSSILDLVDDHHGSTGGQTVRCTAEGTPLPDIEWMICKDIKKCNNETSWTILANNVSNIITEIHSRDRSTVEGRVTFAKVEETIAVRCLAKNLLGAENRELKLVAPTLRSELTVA

“soluble gHgLgO trimer (from UniProt P16832;P16750) (complex)” gave a Kd of 2 nM.
